Data as given in the Immune Epitope Database (IEDB).

What was measured:
HLA-A*02:01 [1] = assay: IEDB peptide-MHC binding, purified MHC/competitive/fluorescence; ≥ and ≤ were set here for values at or beyond the usual limits of such assays; conditions: source organism: Zaire ebolavirus
HLA-A*03:01 [2] = assay: as above; conditions: source organism: Zaire ebolavirus
HLA-A*02:11 = assay: IEDB peptide-MHC binding, purified MHC/direct/fluorescence; filed as Kd, often an IC50 or EC50 that approximates it; ≥ and ≤ were set here for values at or beyond the usual limits of such assays; conditions: source organism: Zaire ebolavirus
HLA-A*02:03 = assay: as above; conditions: source organism: Zaire ebolavirus
HLA-A*24:03 [3] = assay: as above
HLA-A*02:19 = assay: as above; conditions: source organism: Zaire ebolavirus
HLA-A*29:02 = assay: as above; conditions: source organism: Zaire ebolavirus
HLA-A*02:16 = assay: as above; conditions: source organism: Zaire ebolavirus
HLA-A*03:01 [4] = assay: as above
HLA-A*02:12 [5] = assay: as above; conditions: source organism: Zaire ebolavirus
HLA-A*68:02 = assay: as above; conditions: source organism: Zaire ebolavirus
HLA-B*15:01 [6] = assay: IEDB peptide-MHC binding, purified MHC/competitive/fluorescence; filed as Kd, often an IC50 or EC50 that approximates it; ≥ and ≤ were set here for values at or beyond the usual limits of such assays
HLA-B*51:01 = assay: as above
HLA-A*26:01 [7] = assay: as above
HLA-B*15:17 = assay: as above; conditions: source organism: Zaire ebolavirus
HLA-A*69:01 [8] = assay: as above; conditions: source organism: Zaire ebolavirus
HLA-B*18:01 = assay: as above
HLA-B*27:03 = assay: as above
HLA-A*02:01 [9] = assay: as above
HLA-B*57:01 = assay: as above
HLA-B*46:01 = assay: as above
HLA-B*39:01 = assay: as above
HLA-A*31:01 [10] = assay: as above; conditions: source organism: Zaire ebolavirus
HLA-A*11:01 [11] = assay: IEDB peptide-MHC binding, purified MHC/competitive/fluorescence; ≥ and ≤ were set here for values at or beyond the usual limits of such assays; conditions: source organism: Zaire ebolavirus
HLA-A*24:02 = assay: as above; conditions: source organism: Zaire ebolavirus
HLA-A*26:01 [12] = assay: IEDB peptide-MHC binding, purified MHC/direct/fluorescence; filed as Kd, often an IC50 or EC50 that approximates it; ≥ and ≤ were set here for values at or beyond the usual limits of such assays
HLA-B*15:01 [13] = assay: IEDB peptide-MHC binding, purified MHC/competitive/fluorescence; ≥ and ≤ were set here for values at or beyond the usual limits of such assays; conditions: source organism: Zaire ebolavirus
HLA-B*08:01 [14] = assay: as above; conditions: source organism: Zaire ebolavirus
HLA-B*07:02 [15] = assay: as above; conditions: source organism: Zaire ebolavirus
HLA-A*24:03 [16] = assay: IEDB peptide-MHC binding, purified MHC/competitive/fluorescence; filed as Kd, often an IC50 or EC50 that approximates it; ≥ and ≤ were set here for values at or beyond the usual limits of such assays
HLA-B*15:01 [17] = assay: IEDB peptide-MHC binding, purified MHC/direct/fluorescence; filed as Kd, often an IC50 or EC50 that approximates it; ≥ and ≤ were set here for values at or beyond the usual limits of such assays; conditions: source organism: Brucella melitensis
HLA-A*11:01 [18] = assay: as above; conditions: source organism: Brucella abortus
HLA-A*69:01 [19] = assay: as above; conditions: source organism: Brucella abortus
HLA-B*27:05 = assay: as above; conditions: source organism: Brucella abortus
HLA-A*02:01 [20] = assay: as above; conditions: source organism: Brucella abortus
HLA-B*58:01 = assay: as above; conditions: source organism: Brucella abortus
HLA-B*40:01 = assay: as above; conditions: source organism: Brucella abortus
HLA-B*35:01 = assay: as above; conditions: source organism: Brucella melitensis
HLA-B*08:01 [21] = assay: as above
HLA-B*44:02 = assay: as above; conditions: source organism: Brucella abortus
HLA-B*07:02 [22] = assay: as above
HLA-A*31:01 [23] = assay: as above; conditions: source organism: Brucella abortus
HLA-A*03:01 [24] = assay: IEDB peptide-MHC binding, purified MHC/competitive/fluorescence; filed as Kd, often an IC50 or EC50 that approximates it; ≥ and ≤ were set here for values at or beyond the usual limits of such assays; conditions: source organism: Giardia intestinalis ATCC 50581
HLA-A*02:12 [25] = assay: as above; conditions: source organism: Giardia intestinalis ATCC 50581
[26] = source organism: Zaire ebolavirus
[27] = source organism: Brucella abortus
[28] = source organism: Giardia intestinalis ATCC 50581
[29] = source organism: Ebola virus - Eckron (Zaire, 1976)

Sequence | IC50 (HLA-A*03:01 [2]) [µM] | Kd (HLA-A*02:11) [µM] | Kd (HLA-A*02:03) [µM] | Kd (HLA-A*24:03 [3]; [26]) [µM] | Kd (HLA-A*02:19) [µM] | Kd (HLA-A*02:16) [µM] | Kd (HLA-A*02:12 [5]) [µM] | Kd (HLA-A*68:02) [µM] | Kd (HLA-B*51:01; [26]) [µM] | Kd (HLA-A*69:01 [8]) [µM] | Kd (HLA-B*18:01; [26]) [µM] | Kd (HLA-B*27:03; [26]) [µM] | Kd (HLA-A*02:01 [9]; [26]) [µM] | Kd (HLA-B*57:01; [26]) [µM] | Kd (HLA-B*46:01; [26]) [µM] | Kd (HLA-B*39:01; [26]) [µM] | IC50 (HLA-A*24:02) [µM] | also measured
FLLMLCLHH | ≥ 129 |  |  |  |  |  |  |  |  |  |  |  |  |  |  |  |  | IC50 (HLA-A*02:01 [1]): 12.2 µM
RVPTVFHKK |  | ≥ 20 | ≥ 20 | ≥ 20 | ≥ 20 | ≥ 20 | ≥ 20 | ≥ 20 | ≥ 20 | ≥ 20 | ≥ 20 | ≥ 20 | ≥ 20 | ≥ 20 | ≥ 20 | ≥ 20 |  | Kd (HLA-A*29:02): ≥ 20 µM; Kd (HLA-A*03:01 [4]; source organism: Sudan ebolavirus - Uganda (2000)): 0.241 µM; Kd (HLA-B*15:01 [6]; [26]): ≥ 20 µM; Kd (HLA-A*26:01 [7]; [26]): ≥ 20 µM; Kd (HLA-B*15:17): ≥ 20 µM; Kd (HLA-A*31:01 [10]): 0.0268 µM
FYWPVMNHK | 4.71 |  |  |  |  |  |  |  |  |  |  |  |  |  |  |  | 9.75 | IC50 (HLA-A*11:01 [11]): 4.52 µM
TVIYRGTTF |  | ≥ 20 | ≥ 20 | ≥ 20 | ≥ 20 | ≥ 20 | ≥ 20 | ≥ 20 | ≥ 20 | ≥ 20 | ≥ 20 | ≥ 20 | ≥ 20 | ≥ 20 | ≥ 20 | ≥ 20 | 1.26 | Kd (HLA-A*26:01 [12]; [26]): 0.838 µM; Kd (HLA-A*29:02): ≥ 20 µM; Kd (HLA-A*03:01 [4]; [26]): ≥ 20 µM; Kd (HLA-B*15:01 [6]; [26]): 0.0533 µM; IC50 (HLA-B*15:01 [13]): 4.71 µM; IC50 (HLA-B*08:01 [14]): 45.4 µM; IC50 (HLA-B*07:02 [15]): 14.3 µM
LYIEFTDNM |  |  |  |  |  |  |  |  |  |  |  |  |  |  |  |  |  | Kd (HLA-A*24:03 [16]; source organism: Escherichia coli 536): ≤ 0.001 µM
GYSFSIPGY |  |  |  |  |  |  |  |  |  |  |  |  |  |  |  |  |  | Kd (HLA-B*15:01 [17]): 0.548 µM; Kd (HLA-A*26:01 [12]; [27]): ≥ 20 µM; Kd (HLA-A*11:01 [18]): ≥ 20 µM; Kd (HLA-A*24:03 [3]; source organism: Brucella melitensis): 1.07 µM; Kd (HLA-A*69:01 [19]): ≥ 20 µM; Kd (HLA-B*27:05): ≥ 20 µM; Kd (HLA-A*02:01 [20]): ≥ 20 µM; Kd (HLA-B*58:01): ≥ 20 µM; Kd (HLA-B*40:01): ≥ 20 µM; Kd (HLA-B*35:01): 0.468 µM; Kd (HLA-B*08:01 [21]; [27]): ≥ 20 µM; Kd (HLA-A*03:01 [4]; [27]): ≥ 20 µM; Kd (HLA-B*44:02): ≥ 20 µM; Kd (HLA-B*07:02 [22]; [27]): ≥ 20 µM; Kd (HLA-A*31:01 [23]): ≥ 20 µM
VYRDHSEKK | 25.3 |  |  |  |  |  |  |  |  |  |  |  |  |  |  |  | 29.2 | IC50 (HLA-A*11:01 [11]): 33.2 µM
GLYLYRFHV |  |  |  |  |  |  |  |  |  |  |  |  |  |  |  |  |  | Kd (HLA-B*15:01 [6]; [28]): ≥ 20 µM; Kd (HLA-B*51:01; [28]): ≥ 20 µM; Kd (HLA-A*26:01 [7]; [28]): ≥ 20 µM; Kd (HLA-A*24:03 [16]; [28]): ≥ 20 µM; Kd (HLA-B*18:01; [28]): ≥ 20 µM; Kd (HLA-B*27:03; [28]): ≥ 20 µM; Kd (HLA-A*02:01 [9]; [28]): 0.0014 µM; Kd (HLA-B*57:01; [28]): ≥ 20 µM; Kd (HLA-B*46:01; [28]): ≥ 20 µM; Kd (HLA-A*03:01 [24]): ≥ 20 µM; Kd (HLA-A*02:12 [25]): 0.0055 µM; Kd (HLA-B*39:01; [28]): ≥ 20 µM
VVRVRRELL |  | ≥ 20 | ≥ 20 | ≥ 20 | ≥ 20 | ≥ 20 | ≥ 20 | ≥ 20 | ≥ 20 | ≥ 20 | ≥ 20 | ≥ 20 | ≥ 20 | ≥ 20 | ≥ 20 | ≥ 20 |  | Kd (HLA-B*08:01 [21]; [29]): 6 µM; Kd (HLA-A*03:01 [4]; [26]): ≥ 20 µM; Kd (HLA-B*07:02 [22]; [29]): 8 µM; Kd (HLA-A*26:01 [7]; [26]): ≥ 20 µM
